Experimental data: the supplement of paper PMC9112550, “Optimization of the antimicrobial peptide Bac7 by deep mutational scanning” (BMC Biology, 2022)

System: Escherichia coli TOP10
Experiment: shrunken log2 fold change of peptide-encoding DNA abundance (4.5 h post-induction vs induction); higher = less antimicrobial activity (less host growth inhibition)
Conditions: time post-induction: 4.5 h; library: site-saturation at positions 5, 18, 19, 20
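Also: peptides expressed intracellularly from a pBAD plasmid library in pooled LB shake-flask culture, induced with 0.3% L-arabinose, DNA abundance read by NGS, three biological replicates, DESeq2 with apeglm shrinkage.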

Sequence | shrunken log2 fold change
RRIRARPPRLPRPRPRPKHQPRP | 0.324
RRIRIRPPRLPRPRPRPNTKPRP | -0.202
RRIRPRPPRLPRPRPRPADDPRP | 0.118
RRIRNRPPRLPRPRPRPLEHPRP | -0.0225
RRIRFRPPRLPRPRPRPPFSPRP | -0.0847
RRIRTRPPRLPRPRPRPPPEPRP | 0.643
RRIRIRPPRLPRPRPRPWHQPRP | -0.00186
RRIRNRPPRLPRPRPRPVMDPRP | 0.0106
RRIRKRPPRLPRPRPRPMCFPRP | 0.265
RRIRARPPRLPRPRPRPKPHPRP | 0.579
RRIRRRPPRLPRPRPRPCAMPRP | -0.0039
RRIRFRPPRLPRPRPRPGVCPRP | 0.307
RRIRCRPPRLPRPRPRPPWYPRP | -0.0833
RRIRKRPPRLPRPRPRPCVPPRP | -0.14
RRIRHRPPRLPRPRPRPCHIPRP | -0.454
RRIRLRPPRLPRPRPRPRGTPRP | 0.0155
RRIRTRPPRLPRPRPRPSHQPRP | 0.185
RRIRLRPPRLPRPRPRPGPFPRP | 0.137
RRIRSRPPRLPRPRPRPMVQPRP | 0.13
RRIRFRPPRLPRPRPRPVTEPRP | -0.0132
RRIRVRPPRLPRPRPRPWAAPRP | 0.049
RRIRNRPPRLPRPRPRPFRWPRP | 0.0512
RRIRTRPPRLPRPRPRPRTLPRP | -0.121
RRIRVRPPRLPRPRPRPSPQPRP | 0.0525
RRIRGRPPRLPRPRPRPKHCPRP | 0.216

Sequence | shrunken log2 fold change
RRIRHRPPRLPRPRPRPVRLPRP | 0.0217
RRIRYRPPRLPRPRPRPLETPRP | -0.0196
RRIRRRPPRLPRPRPRPFDTPRP | -0.154
RRIRMRPPRLPRPRPRPRQAPRP | 0.013
RRIRYRPPRLPRPRPRPVIFPRP | -0.331
RRIRARPPRLPRPRPRPLKYPRP | -0.11
RRIRQRPPRLPRPRPRPCGEPRP | -0.0396
RRIRVRPPRLPRPRPRPVIIPRP | -0.182
RRIRGRPPRLPRPRPRPQKGPRP | 0.0565
RRIRNRPPRLPRPRPRPNWLPRP | 0.0494
RRIRARPPRLPRPRPRPMEWPRP | 0.259
RRIRMRPPRLPRPRPRPYWAPRP | -0.0573
RRIRTRPPRLPRPRPRPNNVPRP | -0.227
RRIRFRPPRLPRPRPRPIVIPRP | -0.205
RRIRIRPPRLPRPRPRPCGMPRP | 0.0729
RRIRDRPPRLPRPRPRPQDDPRP | 0.0352
RRIRKRPPRLPRPRPRPKAAPRP | 0.142
RRIRFRPPRLPRPRPRPPNDPRP | 0.273
RRIRTRPPRLPRPRPRPVGEPRP | -0.0292
RRIRNRPPRLPRPRPRPLKYPRP | -0.0547
RRIRERPPRLPRPRPRPCRWPRP | -0.205
RRIRERPPRLPRPRPRPYLQPRP | -0.138
RRIRQRPPRLPRPRPRPLAVPRP | 0.0758
RRIRKRPPRLPRPRPRPTVWPRP | 0.548
RRIRFRPPRLPRPRPRPCSQPRP | 0.0319

Sequence | shrunken log2 fold change
RRIRPRPPRLPRPRPRPHWLPRP | -0.0232
RRIRIRPPRLPRPRPRPLAYPRP | -0.132
RRIRVRPPRLPRPRPRPSLGPRP | 0.0433
RRIRYRPPRLPRPRPRPSSGPRP | 0.00646
RRIRSRPPRLPRPRPRPTSVPRP | 0.00616
RRIRIRPPRLPRPRPRPLSLPRP | -0.868
RRIRKRPPRLPRPRPRPPSMPRP | 0.669
RRIRQRPPRLPRPRPRPLYAPRP | -0.399
RRIRHRPPRLPRPRPRPTDYPRP | 0.029
RRIRTRPPRLPRPRPRPDHPPRP | -0.224
RRIRLRPPRLPRPRPRPKGLPRP | -0.0393
RRIRNRPPRLPRPRPRPLFVPRP | -0.495
RRIRFRPPRLPRPRPRPTVCPRP | -0.0464
RRIRCRPPRLPRPRPRPMGTPRP | -0.159
RRIRSRPPRLPRPRPRPHLKPRP | -0.137
RRIRWRPPRLPRPRPRPQDVPRP | -0.0384
RRIRLRPPRLPRPRPRPTFFPRP | 0.14
RRIRGRPPRLPRPRPRPDCYPRP | 0.191
RRIRGRPPRLPRPRPRPRLCPRP | 1.19
RRIRVRPPRLPRPRPRPHLFPRP | 0.461
RRIRWRPPRLPRPRPRPSDVPRP | -0.545
RRIRPRPPRLPRPRPRPDGPPRP | -0.101
RRIRQRPPRLPRPRPRPACSPRP | 0.125
RRIRGRPPRLPRPRPRPISLPRP | -0.228
RRIRYRPPRLPRPRPRPCSMPRP | -0.0147

Sequence | shrunken log2 fold change
RRIRDRPPRLPRPRPRPYVLPRP | -0.347
RRIRYRPPRLPRPRPRPDKVPRP | -0.102
RRIRGRPPRLPRPRPRPLHDPRP | 0.748
RRIRERPPRLPRPRPRPPQSPRP | 0.0516
RRIRKRPPRLPRPRPRPDGHPRP | -0.0242
RRIRHRPPRLPRPRPRPPHHPRP | -0.0583
RRIRPRPPRLPRPRPRPVETPRP | -0.158
RRIRERPPRLPRPRPRPWKDPRP | -0.162
RRIRIRPPRLPRPRPRPFWLPRP | 0.183
RRIRMRPPRLPRPRPRPGWFPRP | 1.16
RRIRRRPPRLPRPRPRPPYVPRP | 0.181
RRIRCRPPRLPRPRPRPYKCPRP | -0.273
RRIRARPPRLPRPRPRPSKKPRP | 0.23
RRIRHRPPRLPRPRPRPHWWPRP | 0.0507
RRIRGRPPRLPRPRPRPGASPRP | 0.934
RRIRKRPPRLPRPRPRPSCIPRP | -0.0677
RRIRIRPPRLPRPRPRPVDFPRP | -0.133
RRIRNRPPRLPRPRPRPEWLPRP | 0.226
RRIRARPPRLPRPRPRPAVQPRP | -0.0122
RRIRMRPPRLPRPRPRPLNDPRP | 0.106
RRIRWRPPRLPRPRPRPCHHPRP | -0.723
RRIRDRPPRLPRPRPRPLCDPRP | 0.287
RRIRFRPPRLPRPRPRPQKRPRP | 0.297
RRIRNRPPRLPRPRPRPPREPRP | 0.534
RRIRGRPPRLPRPRPRPAMKPRP | 0.311

Sequence | shrunken log2 fold change
RRIRGRPPRLPRPRPRPHIEPRP | 1.15
RRIRHRPPRLPRPRPRPTAYPRP | -0.23
RRIRFRPPRLPRPRPRPPMFPRP | -0.0657
RRIRIRPPRLPRPRPRPMHQPRP | -0.121
RRIRNRPPRLPRPRPRPVITPRP | -0.662
RRIRVRPPRLPRPRPRPVFGPRP | -0.0383
RRIRFRPPRLPRPRPRPWMPPRP | -0.25
RRIRNRPPRLPRPRPRPHNAPRP | -0.175
RRIRARPPRLPRPRPRPKYEPRP | 0.13
RRIRFRPPRLPRPRPRPISHPRP | -0.202
RRIRVRPPRLPRPRPRPYSFPRP | -0.594
RRIRERPPRLPRPRPRPMDAPRP | -0.0623
RRIRLRPPRLPRPRPRPREAPRP | 0.641
RRIRTRPPRLPRPRPRPWKEPRP | -0.0407
RRIRLRPPRLPRPRPRPSDIPRP | -0.0623
RRIRERPPRLPRPRPRPPDEPRP | -0.0361
RRIRMRPPRLPRPRPRPQFDPRP | -0.0694
RRIRRRPPRLPRPRPRPLDEPRP | 0.632
RRIRFRPPRLPRPRPRPELTPRP | 0.136
RRIRNRPPRLPRPRPRPVVIPRP | -0.077
RRIRIRPPRLPRPRPRPKISPRP | -0.3
RRIRSRPPRLPRPRPRPCWAPRP | 0.143
RRIRCRPPRLPRPRPRPDFLPRP | -0.657
RRIRMRPPRLPRPRPRPHTEPRP | 0.191
RRIRTRPPRLPRPRPRPQGSPRP | -0.0161

Sequence | shrunken log2 fold change
RRIRPRPPRLPRPRPRPTCAPRP | 0.268
RRIRRRPPRLPRPRPRPGPFPRP | 0.162
RRIRFRPPRLPRPRPRPYGPPRP | -0.266
RRIRTRPPRLPRPRPRPCAEPRP | -0.11
RRIRKRPPRLPRPRPRPHDYPRP | 0.0206
RRIRCRPPRLPRPRPRPRNGPRP | 0.124
RRIRCRPPRLPRPRPRPFYEPRP | -0.741
RRIRTRPPRLPRPRPRPTVLPRP | -0.0554
RRIRDRPPRLPRPRPRPSQWPRP | -0.119
RRIRWRPPRLPRPRPRPNCTPRP | 0.0251
RRIRMRPPRLPRPRPRPINIPRP | -0.0393
RRIRARPPRLPRPRPRPQDNPRP | -0.0337
RRIRPRPPRLPRPRPRPFTAPRP | -0.332
RRIRCRPPRLPRPRPRPHQHPRP | -0.302
RRIRHRPPRLPRPRPRPVKDPRP | -0.549
RRIRMRPPRLPRPRPRPDFCPRP | 0.0837
RRIRARPPRLPRPRPRPSSGPRP | 0.412
RRIRDRPPRLPRPRPRPHIFPRP | -0.361
RRIRKRPPRLPRPRPRPTAPPRP | 1.05
RRIRQRPPRLPRPRPRPWNRPRP | 0.013
RRIRWRPPRLPRPRPRPDNPPRP | 0.208
RRIRGRPPRLPRPRPRPNFFPRP | 0.122
RRIRKRPPRLPRPRPRPVAHPRP | 0.353
RRIRSRPPRLPRPRPRPSAEPRP | 0.567
RRIRHRPPRLPRPRPRPARSPRP | 0.0188
